# Measured values from paper PMC10567733, “C9orf72-catalyzed GTP loading of Rab39A enables HOPS-mediated membrane tethering and fusion in mammalian autophagy” (Nature Communications, 2023).
# T1: Myc-C9orf72 (human, UniProt Q96LT7 1-481)
# T1 construct: C9orf72, human, cloned from human cDNA; source: E. coli BL21 (DE3), purified (Glutathione Sepharose, eluted by TEV cleavage or GSH); not shown: Myc, N-terminal, kept
# T1 sequence (looked up): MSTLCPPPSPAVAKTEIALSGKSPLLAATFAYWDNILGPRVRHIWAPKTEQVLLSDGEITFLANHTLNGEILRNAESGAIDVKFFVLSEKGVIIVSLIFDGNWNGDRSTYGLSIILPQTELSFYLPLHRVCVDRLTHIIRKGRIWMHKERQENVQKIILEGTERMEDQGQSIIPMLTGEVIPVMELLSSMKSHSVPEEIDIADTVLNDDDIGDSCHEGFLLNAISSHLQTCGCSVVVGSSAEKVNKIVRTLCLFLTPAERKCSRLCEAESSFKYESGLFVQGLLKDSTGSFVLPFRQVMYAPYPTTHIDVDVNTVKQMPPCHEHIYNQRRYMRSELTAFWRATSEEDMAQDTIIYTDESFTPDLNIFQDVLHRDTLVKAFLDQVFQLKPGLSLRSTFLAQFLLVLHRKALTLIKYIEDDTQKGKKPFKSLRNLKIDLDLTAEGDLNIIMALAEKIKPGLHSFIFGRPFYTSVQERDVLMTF
# T2: VPS41-Flag (human, UniProt P49754 1-854)
# T2 construct: VPS41, human, cloned from human cDNA (293T cells); also called V41; not shown: Flag, C-terminal, kept
# T2 sequence (looked up): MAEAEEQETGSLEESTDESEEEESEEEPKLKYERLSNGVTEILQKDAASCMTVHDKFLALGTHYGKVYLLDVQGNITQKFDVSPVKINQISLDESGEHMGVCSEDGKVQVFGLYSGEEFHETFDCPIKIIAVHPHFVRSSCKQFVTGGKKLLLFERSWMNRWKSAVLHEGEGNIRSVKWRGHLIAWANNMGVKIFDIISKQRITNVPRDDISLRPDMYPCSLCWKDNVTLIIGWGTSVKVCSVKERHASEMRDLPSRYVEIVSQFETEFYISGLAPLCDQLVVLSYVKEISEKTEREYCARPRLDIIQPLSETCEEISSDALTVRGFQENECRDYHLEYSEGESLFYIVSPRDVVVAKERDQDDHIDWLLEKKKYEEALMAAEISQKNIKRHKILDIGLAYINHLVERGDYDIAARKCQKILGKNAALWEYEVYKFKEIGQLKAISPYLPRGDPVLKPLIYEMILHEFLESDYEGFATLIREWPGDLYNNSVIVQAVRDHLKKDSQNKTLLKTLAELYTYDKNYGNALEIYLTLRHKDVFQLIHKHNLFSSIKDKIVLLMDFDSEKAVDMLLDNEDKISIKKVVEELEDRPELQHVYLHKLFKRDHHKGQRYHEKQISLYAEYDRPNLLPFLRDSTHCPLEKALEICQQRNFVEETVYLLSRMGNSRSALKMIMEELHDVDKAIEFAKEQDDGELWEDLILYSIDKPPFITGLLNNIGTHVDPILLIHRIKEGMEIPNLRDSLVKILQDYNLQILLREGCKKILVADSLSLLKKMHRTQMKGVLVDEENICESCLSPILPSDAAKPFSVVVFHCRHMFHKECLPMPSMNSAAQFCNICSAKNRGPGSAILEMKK
# B1: GST-Rab39A (natural protein, human, UniProt Q14964 1-217, looked up)
# chain: METIWIYQFRLIVIGDSTVGKSCLLHRFTQGRFPGLRSPACDPTVGVDFFSRLLEIEPGKRIKLQLWDTAGQERFRSITRSYYRNSVGGFLVFDITNRRSFEHVKDWLEEAKMYVQPFRIVFLLVGHKCDLASQRQVTREEAEKLSADCGMKYIETSAKDATNVEESFTILTRDIYELIKKGEICIQDGWEGVKSGFVPNTVHSSEEAVKPRKECFC
# notes: Rab39A, human, cloned from human cDNA; unprenylated; also called GST-R39A; purified Rab39A; source: E. coli BL21 (DE3), purified (Glutathione Sepharose); not shown: GST, N-terminal, kept
# B2: GST-Rab39B (natural protein, human, UniProt Q96DA2 1-213, looked up)
# chain: MEAIWLYQFRLIVIGDSTVGKSCLIRRFTEGRFAQVSDPTVGVDFFSRLVEIEPGKRIKLQIWDTAGQERFRSITRAYYRNSVGGLLLFDITNRRSFQNVHEWLEETKVHVQPYQIVFVLVGHKCDLDTQRQVTRHEAEKLAAAYGMKYIETSARDAINVEKAFTDLTRDIYELVKRGEITIQEGWEGVKSGFVPNVVHSSEEVVKSERRCLC
# notes: Rab39B, human, cloned from human cDNA; unprenylated; also called GST-R39B; purified Rab39B; source: E. coli BL21 (DE3), purified (Glutathione Sepharose); not shown: GST, N-terminal, kept
# Key:
# Myc-C9orf72 = target: T1, Myc-C9orf72; assay: pull-down; Glutathione Sepharose beads bound with GST, GST-Rab39A or GST-Rab39B, incubated with the purified protein for one hour, washed, boiled, immunoblot; conditions: both partners purified
# VPS41-Flag = target: T2, VPS41-Flag; assay: as above; conditions: both partners purified
Binder,binding result (Myc-C9orf72),binding result (VPS41-Flag)
B1,binds,binds
B2,binds,binds
